Numbering of substitutions follows the chain as printed.
T1: pS KaiC (KaiC-EA; S431E, T432A) (cyanobacteria, UniProt Q79PF4 1-519, S431E | T432A)
T1 sequence: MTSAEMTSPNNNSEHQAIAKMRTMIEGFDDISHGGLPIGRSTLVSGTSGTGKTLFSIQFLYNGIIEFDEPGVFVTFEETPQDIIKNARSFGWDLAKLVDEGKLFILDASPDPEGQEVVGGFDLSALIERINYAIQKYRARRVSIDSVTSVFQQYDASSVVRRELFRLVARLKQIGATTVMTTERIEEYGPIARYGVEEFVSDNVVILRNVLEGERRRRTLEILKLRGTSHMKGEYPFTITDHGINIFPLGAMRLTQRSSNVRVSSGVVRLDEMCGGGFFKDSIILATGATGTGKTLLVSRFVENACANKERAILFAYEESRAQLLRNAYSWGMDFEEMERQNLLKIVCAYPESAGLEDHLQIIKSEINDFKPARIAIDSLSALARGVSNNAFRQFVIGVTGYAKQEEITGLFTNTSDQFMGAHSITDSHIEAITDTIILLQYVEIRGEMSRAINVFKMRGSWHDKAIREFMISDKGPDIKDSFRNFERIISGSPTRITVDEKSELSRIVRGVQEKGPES

T2: wild-type KaiC with an N-terminal FLAG epitope (cyanobacteria, UniProt Q79PF4 1-519)
T2 sequence: T1 sequence with E431S, A432T

T3: KaiC, wild type (no FLAG epitope) (cyanobacteria, UniProt Q79PF4 1-519)
T3 sequence: T1 sequence with E431S, A432T

B1: biotinylated KaiB (natural protein)
chain: MSPRKTYILKLYVAGNTPNSVRALKTLKNILEVEFQGVYALKVIDVLKNPQLAEEDKILATPTLAKVLPLPVRRIIGDLSDREKVLIGLDLLYGELQDSDDF
modifications: biotin (amine-reactive EZ-Link-Sulfo-NHS-LC-Biotin, 50 x molar excess; sites not determined)
B2: FITC-labeled KaiB K25C (natural protein)
chain: B1 chain with K25C
modifications: FITC label

Key:
[1] = molecular target: T1, pS KaiC (KaiC-EA; S431E, T432A); test: pull-down
[2] = molecular target: T2, wild-type KaiC with an N-terminal FLAG …; test: pull-down
[3] = molecular target: T2, wild-type KaiC with an N-terminal FLAG …; test: fluorescence polarisation
[4] = molecular target: T3, KaiC, wild type (no FLAG epitope); test: fluorescence polarisation

Binder	binding result [1]	binding result [2]	binding result [3]	binding result [4]
B1	binds	binds	–	–
B2	–	–	binds	binds

Reference: publication PMC11696221 (Nature Communications, 2025)
